Key:
[1] = system: ARPE-19 cells; test: Nanoparticle uptake by human retinal pigment epithelial cells; format: cell-based; settings: 1 ml of 100 μg/ml suspension in serum free medium
Procedure: A study was performed to examine the effect of targeting moieties on biodegradable and non-biodegradable carrier particles and their uptake in ocular cells. The biodegradable and non-biodegradable targeted carrier particles of the preceding Example were used. Uptake of nanoparticles by human retinal pigment epithelial cells (ARPE-19 cell line) was quantified by measuring fluorescence in cell lysate obtained after incubation of targeted or untargeted (unconjugated) nanoparticles with ARPE-19 cell monolayers.
ARPE-19 cells were obtained from American Type Culture Collection (ATCC, Manassas, Va.). The cells were maintained in culture according to supplier's recommendation. All studies were conducted using confluent cells of passages 20-30. Dulbecco's modified Eagle's medium (DMEM-F/12), fetal bovine serum, penicillin-streptomycin and L-glutamine were obtained from Gibco-BRL (Invitrogen Inc., Carlsbad, Calif.). Cell culture flasks (T-75 cm^2) and plates were purchased from Corning Inc., (Corning, N.Y.). To investigate the uptake of particles, ARPE-19 cells between 20-30 passages were cultured in 24-well plates until confluency. […] Fluorescence intensity of the cell lysates was determined at an excitation and emission wavelength of 505 and 515 nm, respectively, for FluoSpheres®. […]

[2] = Particle size, polydispersity and zeta-potential by dynamic light scattering; format: physicochemical; settings: Table 6
Procedure: Nanoparticle carrier particles were formed by the methods of the preceding Example, and characterized as follows. The particle size and the zeta-potential were measured using Zeta Plus zeta-potential analyzer (Brookhaven Instruments Ltd., New York, N.Y.), which employs the dynamic light scattering technique for particle size measurement. The particle size and zeta-potential measurements were made after 1:1000 dilution of particle stock in filtered deionized water. Further, the particles were visualized using a transmission electron microscope (TEM). The carbon-coated grids were floated on a suspension droplet of plain or functionalized nanoparticles on a flexible plastic film (Parafilm, Pechiney Plastic Packaging, Neenah, Wis.) to allow the adsorption of nanoparticles onto the grid. After drying the particles, uranyl acetate was added as a negative stain to the carbon grid and allowed to react with the particles. This procedure makes the particles electron dense, allowing their visualization using an electron microscope. The particles were photographed using EM410 Phillips electron microscope (Eindhoven, The Netherlands) set at 60 kV and a magnification of 153000×.
Characterization of particles: The particle size and the zeta-potential were measured using ZetaPlus® zeta-potential analyzer, Brookhaven Instruments Ltd. (New York, N.Y.), which employs the dynamic light scattering technique for particle size measurement. The particle size and zeta-potential measurements were carried out after 1:1000 dilution of particle stock in filtered deionized water before lyophilization in filtered deionized water. The effective diameter of conjugated nanoparticles was higher than that of unconjugated nanoparticles.
Particle Size Analysis: Particle size and zeta-potential of the nanoparticles before and after conjugation following lyophilization were measured in double distilled water (100 μl of particle/1 ml of water) using dynamic light scattering (DLS). After lyophilization the plasmid loaded particles were weighed (1 mg) into glass Kimble tubes. To each tube, 1 ml of double distilled water was added and vortexed at high speed (Vortex Genie, Scientific Industries, Bohemia, N.Y.) till the particles were resuspended. The particle size and zeta potential was determined using dynamic light scattering after dilution (1:10 in double distilled water) (Brookhaven Instruments Corp., Holtsville, N.Y.). Nanoparticle size after lyophilization was 210.4±0.68 nm and zeta potential was −32.85±0.87 mV. Nanoparticle size and zeta potential was measured after conjugation with deslorelin and transferrin. Similarly, the unconjugated nanoparticles were also treated under the same conditions as with the conjugated nanoparticles (the conjugation protocol as mentioned above).
Transport studies were conducted in bovine nasal tissue. Bovine nasal tissue was obtained from freshly slaughtered cattle, and different regions (MTA, MTP, ITP) were prepared as described in Example 13. Nanoparticles coupled to deslorelin or transferring via aldehyde sulfate moieties were prepared as described in Example 3. The nanoparticle size was measured using a Zeta Plus Analyzer (Brookhaven Instruments Limited, UK). Particle size was analyzed before and after ligand conjugation in deionized filtered water.

[3] = target: T1, LHRH-receptor (Bos taurus, UniProt P32236); test: Receptor binding assays (kinetic, saturation, competition) with 125I-deslorelin in bovine pituitary and nasal tissue homogenates; settings: 4° C.; remained stable until 4 hr
T1 construct: The tissue homogenate was then centrifuged at 15000 g for 15 min at 4° C. to separate the crude membrane from the buffer; from tissue; host or cells: bovine nasal mucosa (MTA, MTP, ITP regions) and bovine pituitary, crude membrane homogenates
T1 sequence (P32236 1-328): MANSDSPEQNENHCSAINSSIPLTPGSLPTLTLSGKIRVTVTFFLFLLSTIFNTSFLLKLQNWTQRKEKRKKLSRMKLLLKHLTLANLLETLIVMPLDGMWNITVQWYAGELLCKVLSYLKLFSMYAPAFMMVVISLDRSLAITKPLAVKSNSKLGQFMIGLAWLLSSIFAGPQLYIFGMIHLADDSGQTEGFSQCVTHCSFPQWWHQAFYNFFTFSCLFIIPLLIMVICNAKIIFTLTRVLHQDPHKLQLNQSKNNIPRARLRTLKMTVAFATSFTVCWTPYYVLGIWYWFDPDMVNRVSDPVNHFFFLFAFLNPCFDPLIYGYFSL
Procedure: Radioactivity was measured in the pellet using a Perkin-Elmer γ-counter.
Reprod. […] Reprod. […] Radioactivity was measured in the pellet using a Perkin-Elmer γ-counter. […] The experiment was repeated three times.
Competition Studies: To determine the amount of unlabelled deslorelin required to displace the radioactivity, competition studies were conducted. […] Assays were performed in triplicates. At the end of 4 hr, the incubation tubes were centrifuged at 10,000 g for 20 min at 4° C. to separate the bound fraction. Radioactivity was measured in the pellet using a Perkin-Elmer γ-counter. The same controls as in the kinetic and saturation studies were used. The experiment was repeated three times.

| time at which binding reached a maximum [3] [h] | Substance | percentage uptake at 3 h by ARPE-19 cells [1] [%] | Zeta potential [2] [mV] | Effective diameter ([2]; 1:1000 dilution in filtered deionized water) [nm] |
| --- | --- | --- | --- | --- |
| – | Transferrin-PLGA: transferrin conjugated nile red loaded PLGA nanoparticles | 3.32±0.1 | −17.94 ± 1.5 | 385.8 ± 4.6 |
| 1.5 | ^125I-deslorelin: I^125 labeled deslorelin radioligand (EHWSYWLRP; D-residues; non-natural residues) | – | – | – |

Reference: patent US8821943B2, “Methods and compositions for targeted delivery of therapeutic agents” (Board of Regents of the University of Nebraska, priority 2006, dated 2014)
